From patent publication US20250388680A1 (KITE PHARMA, published 2025)
Where a chain is given by its changes, count along the chain named.

T1: muIgG2a huCLL1 (human, UniProt Q5QGZ9 65-265, limits assumed)
T1 construct: It may be the same construct as muIgG2a monoFc huCLL1 (+) of the ELISA; also called huCLL1.mIgG2a; not shown: mouse IgG2a part
T1 sequence: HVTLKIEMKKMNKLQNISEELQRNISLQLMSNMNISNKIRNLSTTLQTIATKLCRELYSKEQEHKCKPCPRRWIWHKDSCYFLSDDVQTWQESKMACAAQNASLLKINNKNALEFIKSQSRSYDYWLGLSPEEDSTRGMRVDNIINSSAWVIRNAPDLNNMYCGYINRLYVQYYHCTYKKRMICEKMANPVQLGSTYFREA

T2: huIgG1 huCLL1 (human, UniProt Q5QGZ9 65-265, limits assumed)
T2 construct: not shown: human IgG1 part
T2 sequence: T1 sequence

T3: huCLEC12B (Acro Biosystems) (human, UniProt Q2HXU8 65-276, limits assumed)
T3 construct: Bought protein
T3 sequence (looked up): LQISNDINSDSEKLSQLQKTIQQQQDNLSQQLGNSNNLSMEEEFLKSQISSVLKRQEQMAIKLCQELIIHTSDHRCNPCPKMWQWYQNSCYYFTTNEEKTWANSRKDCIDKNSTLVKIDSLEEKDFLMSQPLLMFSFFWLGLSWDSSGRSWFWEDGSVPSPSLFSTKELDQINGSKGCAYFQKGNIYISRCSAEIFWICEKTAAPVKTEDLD

B1: D2D88607-15321 (antibody, V domains shown)
VH: EVQLVESGGGLVQPGGSLRLSCAASGFTFSFNDMNWVRQAPGKGLEWVSTISGSGGSTYYADSVKGRFTISRDNSKNTLYLQMNSLRAEDTAVYYCAVTGLYYYYYMDVWGKGTTVTVSS
VL: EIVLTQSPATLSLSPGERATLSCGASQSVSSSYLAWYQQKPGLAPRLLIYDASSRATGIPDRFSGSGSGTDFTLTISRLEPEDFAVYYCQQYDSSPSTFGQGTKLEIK
notes: also called mAb_018
B2: D2AD89041-10444 (antibody, V domains shown)
VH: EVQLLESGGGLVQPGGSLRLSCAASGFTFNNYVMAWVRQVPGKGLEWVSGISGSGLITSYAASVKDRFTISRDNSNNTVYLQMKSLRAEDTAVYFCAKEPHVLLDDYMDVWGKGTTVTVSS
VL: EIVLTQSPATLSLSPGERATLSCGASQSVTSSYLAWYQQKPGLAPRLLIYDASNRATGIPDRFSGSGSGTDFTLTISRLEPEDFAVYYCQQYGRSLTFGGGTKVEIK
notes: also called mAb_049
B3: D2D88607-14083 (antibody, V domains shown)
VH: EVQLLESGGDLVQPGGSLRLSCAASGFTFSSYAMNWVRQAPGKGLEWVSAISGSGVFTYYADSVKGRFTISRDNSENTLYLQMNSLRAEDTAVYYCAKEMQQLIQGDLFDIWGQGTMVTVSS
VL: B2 VL with T30S, S31N, S32N, N54S, R94S, L96H, G100Q, V104L
notes: also called mAb_017
B4: D2AD88607-5141 (antibody, V domains shown)
VH: QVQLVESGGGVVQPGRSLRLSCAASGFTFSSYGMHWVRQAPGKGLEWVAIISYDGSDKYYADSVKGRFTISRDNSKNTLYLQMNSLRAEDTAVYYCARNYNYYMDVWGKGTTVTVSS
VL: EIVMTQSPATLSLSPGERATLSCRASQSVRSSYLSWYQQKPGQAPRLLIYGTSTRATGIPARFSGSGSGTDFTLTISSLQPEDFAVYYCQQDYNLPLTFGGGTKVEIK
notes: also called mAb_038
B5: D2D88607-9226 (antibody, V domains shown)
VH: QVQLQQWGAGLLKPSETLSLTCAVYGGSFSGYYWSWIRQPPGKGLEWIGEFNHSGGPNYNPSLKSRVTISTDTSNNQFSLKLSSVTAADTAVYYCARGTTGNYYYYMDVWGKGTTVTVSS
VL: AIQMTQSPSSLSASVGDRVTITCRASQGIRNDLGWYQQKPGKAPKLLIYAASSLQSGVPSRFSGSGSGTDFTLTISSLQPEDFATYYCLQDYIYPPTFGPGTKLEIK
notes: also called mAb_023
B6: D2AD88607-7048 (antibody, V domains shown)
VH: EVQLVESGGGLVQPGGSLRLSCAASGFTFSSYDMHWVRQATGKGLEWVSAIGTAGDKYYLASVKGRFTISRENAKNSLYLQMNSLRAGDTAVYYCVRDSLTGPTVTPYMDVWGKGTTVTVSS
VL: EIVLTQSPDFQSVTPKEKVTITCRASQSIGSGLHWYQQKPDQSPKLLIIYASQSISGVPSRFSGSGSGTDFTLTINSLEAEDAAAYYCHQSSSLPYTFGQGTKLEIK
notes: also called mAb_042

biological target: T1, muIgG2a huCLL1; experiment: Octet BLI, mAb captured on FAB2G biosensor, antigen in solution
Description: (§1) Octet Off-Rate Ranking Assay: Alternate binding assay was conducted with the recombinant antibodies confirming specific binding to CLL1 without binding to CLEC12B. Briefly, purified mAbs were individually captured on FAB2G anti-human Fab biosensors. The mAb-captured biosensors were dipped in wells containing antigen and the binding response was measured. Biosensors were later dipped in buffer wells to observe the dissociation of bound antigen from captured mAb and were regenerated and similar binding kinetic assays were performed for subsequent antigens. The binding kinetics of fifteen mAbs were illustrated in Table 2.

Row | Kd | t½ | Binder
1 | 4.29 nM | 83.2 min | B1
2 | – | 5.4 min | B2
3 | 0.374 nM | 116 min | B3
4 | 0.766 nM | 54.4 min | B4
5 | 0.347 nM | 64.1 min | B5
6 | 2.98 nM | 7.7 min | B6

biological target: T2, huIgG1 huCLL1; experiment: as above
Description: as §1

Row | Kd | t½ | Binder
7 | 29.4 nM | 9.1 min | B1
8 | – | 0 min | B2
9 | 3.19 nM | 18.6 min | B3
10 | 19.9 nM | 2.3 min | B4
11 | 2.28 nM | 16.5 min | B5
12 | 81.1 nM | 0.3 min | B6

biological target: T2, huIgG1 huCLL1; experiment: Octet BLI, mAb captured on FAB2G biosensor, antigen in solution; antigen huCLL1 fused to huIgG1 Fc
Description: as §1

Row | Kd | Binder
13 | 1120 nM | B2

biological target: T1, muIgG2a huCLL1; experiment: Octet BLI, mAb captured on FAB2G biosensor, antigen in solution; antigen huCLL1 fused to muIgG2a Fc
Description: as §1

Row | Kd | Binder
14 | 3.46 nM | B2

biological target: T4, muIgG2a monoFc huCLL1 (+) (human); experiment: ELISA, plate coated with antigen 1 ug/mL; antibody 10.00 ug/mL in well
T4 construct: ELISA coating antigen
Description: ELISA Validation: Antibodies identified by the Beacon screen were made recombinantly and validated for binding to CLL1. High-binding ELISA plate was coated with muIgG2a monoFc huCLL1 (+) (1 μg/mL) overnight at 4° C. After removal of the antigen, the wells were blocked with 2% BSA in 1×PBS for 1 hour. The BSA was then removed and the primary antibody was added to the wells in 1×PBS solution, incubated at RT for 1 hour. The wells were washed four times with 1×PBS. HRP conjugated secondary antibody was added in blocking solution, and was incubated at RT for 45 minutes. The wells were washed five times with 1×PBS. TMB substrate was added, followed by stop solution. The plates were read at 450 nm.

Row | OD 450 nm | Binder
15 | 1.38 OD | B1
16 | 0.205 OD | B2
17 | 2 OD | B4
18 | 1.75 OD | B5
19 | 1.57 OD | B6

biological target: T3, huCLEC12B (Acro Biosystems); experiment: Octet BLI, mAb captured on FAB2G anti-human Fab biosensors
Description: as §1

Row | binding result | Binder
20 | no binding | B1
21 | no binding | B2
22 | no binding | B3
23 | no binding | B4
24 | no binding | B5
25 | no binding | B6
